Laboratory results: IntAct's records for PubMed 21481780

B1: Phosphotransferase RcsD (Escherichia coli (strain K12)), P39838 (parent)
chain: MRQKETTATTRFSLLPGSITRFFLLLIIVLLVTMGVMVQSAVNAWLKDKSYQIVDITHAIQKRVDNWRYVTWQIYDNIAATTSPSSGEGLQETRLKQDVYYLEKPRRKTEALIFGSHDNSTLEMTQRMSTYLDTLWGAENVPWSMYYLNGQDNSLVLISTLPLKDLTSGFKESTVSDIVDSRRAEMLQQANALDERESFSNMRRLAWQNGHYFTLRTTFNQPGHLATVVAFDLPINDLIPPGMPLDSFRLEPDATATGNNDNEKEGTDSVSIHFNSTKIEISSALNSTDMRLVWQVPYGTLLLDTLQNILLPLLLNIGLLALALFGYTTFRHFSSRSTENVPSTAVNNELRILRAINEEIVSLLPLGLLVHDQESNRTVISNKIADHLLPHLNLQNITTMAEQHQGIIQATINNELYEIRMFRSQVAPRTQIFIIRDQDREVLVNKKLKQAQRLYEKNQQGRMIFMKNIGDALKEPAQSLAESAAKLNAPESKQLANQADVLVRLVDEIQLANMLADDSWKSETVLFSVQDLIDEVVPSVLPAIKRKGLQLLINNHLKAHDMRRGDRDALRRILLLLMQYAVTSTQLGKITLEVDQDESSEDRLTFRILDTGEGVSIHEMDNLHFPFINQTQNDRYGKADPLAFWLSDQLARKLGGHLNIKTRDGLGTRYSVHIKMLAADPEVEEEEERLLDDVCVMVDVTSAEIRNIVTRQLENWGATCITPDERLISQDYDIFLTDNPSNLTASGLLLSDDESGVREIGPGQLCVNFNMSNAMQEAVLQLIEVQLAQEEVTESPLGGDENAQLHASGYYALFVDTVPDDVKRLYTEAATSDFAALAQTAHRLKGVFAMLNLVPGKQLCETLEHLIREKDVPGIEKYISDIDSYVKSLL
partner: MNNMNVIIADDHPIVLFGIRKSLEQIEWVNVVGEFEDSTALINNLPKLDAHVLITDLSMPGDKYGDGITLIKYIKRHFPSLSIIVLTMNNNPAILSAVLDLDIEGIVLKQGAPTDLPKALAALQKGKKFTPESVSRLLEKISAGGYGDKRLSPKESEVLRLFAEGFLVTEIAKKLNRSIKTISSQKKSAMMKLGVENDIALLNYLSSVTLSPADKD

Variants of: B1
Details: with rcsb_ecoli rcsB

effect of a mutation on the interaction | Variant
decreasing interaction | N715A;Q776A;L780A
